Assay results taken from article PMC6362458 (Journal of the American Chemical Society, 2017).

Tests used:
[1] = Isoelectric point determination by IEF gel electrophoresis; format: physicochemical; settings: data not shown
[2] = cited from earlier work
[3] = Photolysis of P2-insulin suspension in pH 7.2 PBS; format: physicochemical
[4] = Visual precipitation on pH shift and clarification on photolysis; format: physicochemical; settings: 75µM, 10 minutes 365nm LED (1.84 mW/cm^2)
[5] = 2 h

Substance	pI of insulin reacted with uncharged DMNPE derivative vs native insulin [1]	pI (isoelectric point) [2]	Insulin released from unirradiated control suspension ([3]; pH 7.2 PBS suspension processed identically, no 365 nm irradiation, IEF gel)	P2-insulin in supernatant of irradiated suspension ([3]; pH 7.2 PBS, IEF gel of supernatant)	Appearance of pH 7.2 suspension after irradiation [4]	Solubility at pH 4 [5]
insulin	5.4	5.4				
P2-Insulin: insulin with two pyrrolidines linked via the photocleavable DMNPE group; likely mixture of modified carboxyl sites			no insulin released	no detectable P2-insulin	substantially clarified the suspension	216 µM
